Columns and labels:
Assay in all cases: purified protein
Conditions in all cases: acylates Ser70
[1] = tested on: CC(=O)OCC1=C(C(=O)O)N2C(=O)[C@@H](NC(=O)Cc3cccs3)[C@H]2SC1
[2] = tested on: C[C@@H](O)[C@H]1C(=O)N2C(C(=O)O)=C(SCCN=CN)C[C@H]12
[3] = tested on: C[C@@H](O)[C@H]1C(=O)N2C(C(=O)O)=C(S[C@@H]3CN[C@H](C(=O)N(C)C)C3)[C@H](C)[C@H]12; format: biochemical, Klebsiella pneumoniae
[4] = tested on: C[C@@H](O)[C@H]1C(=O)N2C(C(=O)O)=C(S[C@@H]3CN[C@H](C(=O)Nc4cccc(C(=O)O)c4)C3)[C@H](C)[C@H]12; format: biochemical, Klebsiella pneumoniae

**Q.** Which results are given for KPC-2 (Klebsiella pneumoniae)?
**A.** Km [1]: 42 µM; kcat [1]: 110 s⁻¹; Km [2]: 72 µM; kcat [2]: 22 s⁻¹; kcat/Km [2]: 310000 M⁻¹ s⁻¹; Km [3]: 7.1 µM; kcat [3]: 21 s⁻¹; kcat/Km [3]: 3e+06 M⁻¹ s⁻¹; Km [4]: 8.6 µM; kcat [4]: 8 s⁻¹; kcat/Km [4]: 920000 M⁻¹ s⁻¹
